Tests used:
4H1198-AA = target: T1, 4H1198-AA; assay: two-hybrid library CCmax;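 further: natural log of median RNA to DNA barcode read ratio; higher means stronger binding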
T1 chain: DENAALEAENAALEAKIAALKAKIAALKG

4H1350-AA = target: T2, 4H1350-AA; assay: two-hybrid library CCmax; conditions: mean of both orientations;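 further: natural log of median RNA to DNA barcode read ratio; higher means stronger binding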
T2 chain: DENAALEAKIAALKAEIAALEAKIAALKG

4H1405-AA = target: T3, 4H1405-AA; assay: two-hybrid library CCmax; conditions: mean of both orientations;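 further: natural log of median RNA to DNA barcode read ratio; higher means stronger binding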
T3 chain: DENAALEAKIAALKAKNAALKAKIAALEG

4H2211-AA = target: T4, 4H2211-AA; assay: two-hybrid library CCmax; conditions: mean of both orientations;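 further: natural log of median RNA to DNA barcode read ratio; higher means stronger binding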
T4 chain: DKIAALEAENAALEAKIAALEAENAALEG

4H2238-AA = target: T5, 4H2238-AA; assay: two-hybrid library CCmax; conditions: mean of both orientations
T5 chain: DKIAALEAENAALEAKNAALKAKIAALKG

4H2513-AA = target: T6, 4H2513-AA; assay: two-hybrid library CCmax; conditions: mean of both orientations
T6 chain: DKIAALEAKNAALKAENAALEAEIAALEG

4H2536-AA = target: T7, 4H2536-AA; assay: two-hybrid library CCmax; conditions: mean of both orientations
T7 chain: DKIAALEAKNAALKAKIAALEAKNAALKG

4H2608-AA = target: T8, 4H2608-AA; assay: two-hybrid library CCmax; conditions: mean of both orientations
T8 chain: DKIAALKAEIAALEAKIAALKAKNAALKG

4H2614-AA = target: T9, 4H2614-AA; assay: two-hybrid library CCmax; conditions: mean of both orientations
T9 chain: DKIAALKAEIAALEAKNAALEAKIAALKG

4H2726-AA = target: T10, 4H2726-AA; assay: two-hybrid library CCmax; conditions: mean of both orientations
T10 chain: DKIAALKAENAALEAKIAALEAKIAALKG

4H2935-AA = target: T11, 4H2935-AA; assay: two-hybrid library CCmax; conditions: mean of both orientations
T11 chain: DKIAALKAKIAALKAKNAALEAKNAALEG

4H327-AA = target: T12, 4H327-AA; assay: two-hybrid library CCmax; conditions: mean of both orientations
T12 chain: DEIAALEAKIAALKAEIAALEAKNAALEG

4H341-AA = target: T13, 4H341-AA; assay: two-hybrid library CCmax
T13 chain: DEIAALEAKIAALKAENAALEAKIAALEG

4H3605-AA = target: T14, 4H3605-AA; assay: two-hybrid library CCmax; conditions: mean of both orientations
T14 chain: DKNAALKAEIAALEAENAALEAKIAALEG

4H3625-AA = target: T15, 4H3625-AA; assay: two-hybrid library CCmax; conditions: mean of both orientations
T15 chain: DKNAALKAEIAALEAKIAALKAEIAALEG

4H3664-AA = target: T16, 4H3664-AA; assay: two-hybrid library CCmax; conditions: mean of both orientations
T16 chain: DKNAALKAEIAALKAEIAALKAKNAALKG

4H369-AA = target: T17, 4H369-AA; assay: two-hybrid library CCmax
T17 chain: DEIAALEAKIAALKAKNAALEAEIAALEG

4H3922-AA = target: T18, 4H3922-AA; assay: two-hybrid library CCmax; conditions: mean of both orientations
T18 chain: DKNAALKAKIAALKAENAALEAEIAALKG

4H4033-AA = target: T19, 4H4033-AA; assay: two-hybrid library CCmax; conditions: mean of both orientations
T19 chain: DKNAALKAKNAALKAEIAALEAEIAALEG

4H481-AA = target: T20, 4H481-AA; assay: two-hybrid library CCmax; conditions: mean of both orientations
T20 chain: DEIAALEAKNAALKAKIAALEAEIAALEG

4H55-AA = target: T21, 4H55-AA; assay: two-hybrid library CCmax; conditions: mean of both orientations
T21 chain: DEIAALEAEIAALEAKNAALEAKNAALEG

4H662-AA = target: T22, 4H662-AA; assay: two-hybrid library CCmax; conditions: mean of both orientations
T22 chain: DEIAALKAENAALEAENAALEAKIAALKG

4H2253-bH = target: T23, 4H2253-bH; assay: two-hybrid library CCNG1
T23 chain: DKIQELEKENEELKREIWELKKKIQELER

4H235-bH = target: T24, 4H235-bH; assay: two-hybrid library CCNG1
T24 chain: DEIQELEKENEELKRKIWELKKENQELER

4H2444-bH = target: T25, 4H2444-bH; assay: two-hybrid library CCNG1
T25 chain: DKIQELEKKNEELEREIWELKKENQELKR

4H2518-bH = target: T26, 4H2518-bH; assay: two-hybrid library CCNG1
T26 chain: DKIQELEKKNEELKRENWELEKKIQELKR

4H2585-bH = target: T27, 4H2585-bH; assay: two-hybrid library CCNG1
T27 chain: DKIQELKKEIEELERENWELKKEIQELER

4H264-bH = target: T28, 4H264-bH; assay: two-hybrid library CCNG1
T28 chain: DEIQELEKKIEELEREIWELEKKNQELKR

4H2760-bH = target: T29, 4H2760-bH; assay: two-hybrid library CCNG1
T29 chain: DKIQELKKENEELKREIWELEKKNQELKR

4H2859-bH = target: T30, 4H2859-bH; assay: two-hybrid library CCNG1
T30 chain: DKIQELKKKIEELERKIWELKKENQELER

4H2931-bH = target: T31, 4H2931-bH; assay: two-hybrid library CCNG1
T31 chain: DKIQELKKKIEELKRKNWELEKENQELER

4H3041-bH = target: T32, 4H3041-bH; assay: two-hybrid library CCNG1
T32 chain: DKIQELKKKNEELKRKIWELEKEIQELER

4H3297-bH = target: T33, 4H3297-bH; assay: two-hybrid library CCNG1
T33 chain: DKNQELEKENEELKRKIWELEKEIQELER

4H3364-bH = target: T34, 4H3364-bH; assay: two-hybrid library CCNG1
T34 chain: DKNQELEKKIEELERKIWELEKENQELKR

4H3381-bH = target: T35, 4H3381-bH; assay: two-hybrid library CCNG1
T35 chain: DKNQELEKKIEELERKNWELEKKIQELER

4H349-bH = target: T36, 4H349-bH; assay: two-hybrid library CCNG1
T36 chain: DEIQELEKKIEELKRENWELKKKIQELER

4H56-bH = target: T37, 4H56-bH; assay: two-hybrid library CCNG1
T37 chain: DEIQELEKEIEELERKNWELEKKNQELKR

4H730-bH = target: T38, 4H730-bH; assay: two-hybrid library CCNG1
T38 chain: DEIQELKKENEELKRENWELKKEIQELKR

4H796-bH = target: T39, 4H796-bH; assay: two-hybrid library CCNG1
T39 chain: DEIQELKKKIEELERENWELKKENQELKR

4H932-bH = target: T40, 4H932-bH; assay: two-hybrid library CCNG1
T40 chain: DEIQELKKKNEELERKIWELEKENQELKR

4H949-bH = target: T41, 4H949-bH; assay: two-hybrid library CCNG1
T41 chain: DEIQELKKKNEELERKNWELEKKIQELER

P12A-bP = target: T42, P12A-bP; assay: two-hybrid library CCNG1
T42 chain: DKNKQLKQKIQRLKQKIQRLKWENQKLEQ

P7A-bP = target: T43, P7A-bP; assay: two-hybrid library CCNG1
T43 chain: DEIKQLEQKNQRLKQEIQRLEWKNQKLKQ

Binder DENAALEAENAALEAKIAALKAKIAALKG [4H1198-AA] has an interaction score (4H1198-AA) of -0.611, an interaction score (4H1350-AA) of 0.496 and an interaction score (4H1405-AA) of -0.758. For the same binder, the interaction score (4H2211-AA) was -1.3, the interaction score (4H2238-AA) was -0.785 and the interaction score (4H2513-AA) was 1.14. It also gave an interaction score (4H2536-AA) of -0.886, an interaction score (4H2608-AA) of 0.869 and an interaction score (4H2614-AA) of -0.463. The interaction score (4H2726-AA) was -0.438, the interaction score (4H2935-AA) was -1.5 and the interaction score (4H327-AA) was -0.574. For the same binder, the interaction score (4H341-AA) was -2.13, the interaction score (4H3605-AA) was 0.0472 and the interaction score (4H3625-AA) was -0.0176. The interaction score (4H3664-AA) was 1.22, the interaction score (4H369-AA) was -1.45 and the interaction score (4H3922-AA) was 0.661. The interaction score (4H4033-AA) was 2.18, the interaction score (4H481-AA) was 1.9 and the interaction score (4H55-AA) was -0.467. The interaction score (4H662-AA) was -1.15.

Binder DKIQELEKENEELKREIWELKKKIQELER [4H2253-bH] has an interaction score (4H2253-bH) of 0.888, an interaction score (4H235-bH) of 0.172 and an interaction score (4H2444-bH) of -0.045. For the same binder, the interaction score (4H2518-bH) was 0.157, the interaction score (4H2585-bH) was -1.52 and the interaction score (4H264-bH) was 0.653. For the same binder, the interaction score (4H2760-bH) was 0.899, the interaction score (4H2859-bH) was 0.651 and the interaction score (4H2931-bH) was -0.195. For the same binder, the interaction score (4H3041-bH) was 0.872, the interaction score (4H3297-bH) was 0.617 and the interaction score (4H3364-bH) was 0.0509. For the same binder, the interaction score (4H3381-bH) was 0.131, the interaction score (4H349-bH) was -0.0717 and the interaction score (4H56-bH) was -2.53. The interaction score (4H730-bH) was -0.37, the interaction score (4H796-bH) was -0.124 and the interaction score (4H932-bH) was -0.937. It also gave an interaction score (4H949-bH) of -0.427, an interaction score (P12A-bP) of -0.712 and an interaction score (P7A-bP) of -1.72.
